Experimental data reported in the supplement of paper PMC12338614.
± gives the uncertainty stated by the source.

B1: library; numbered along this chain (parent)
chain: MEVVDPQQLGMFTEGELMSVGMDTFIHRIDSTEVIYQPRRKRAKLIGKYLMGDLLGEGSYGKVKEVLDSETLCRRAVKILKKKKLRRIPNGEANVKKEIQLLRRLRHKNVIQLVDVLYNEEKQKMYMVMEYCVCGMQEMLDSVPEKRFPVCQAHGYFCQLIDGLEYLHSQGIVHKDIKPGNLLLTTGGTLKISDLGVAEALHPFAADDTCRTSQGSPAFQPPEIANGLDTFSGFKVDIWSAGVTLYNITTGLYPFEGDNIYKLFENIGKGSYAIPGDCGPPLSDLLKGMLEYEPAKRFSIRQIRQHSWFRKKHPPAEAPVPIPPSPDTKDRWRSMTVVPYLEDLHGADEDEDLFDIEDDIIYTQDFTVPGQVPEEEASHNGQRRGLPKAVCMNGTEAAQLSTKSRAEGRAPNPARKACSASSKIRRLSACKQQ

Variants of: B1
Experiment: STK11 functional score (HeLa growth suppression), rescaled enrichment; synonymous median = 1, nonsense median = 0 (normalised score)
Details: with HeLa; variant type: missense
Procedure: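 Deep mutational scan (TileSeq/POPCode codon randomisation) of full-length codon-optimised STK11 cDNA integrated at a Bxb1 landing pad (AAVS1) in HeLa cells. Restoring functional STK11 suppresses HeLa proliferation. Variant frequencies were measured by NGS before and after about two weeks of growth. The error-corrected enrichment log-ratio was rescaled so that synonymous median = 1 and nonsense median = 0, scores above 1 were compressed, and codon-level and three biological replicate scores were combined; error is the bootstrapped standard error. Scale: synonymous median = 1, nonsense median = 0; below 0.5 = damaging.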

Q: How did the STK11 functional score turn out when MEVVDPQQLGMFTEGELMSVGMDTFIHRIDSTEVIYQPRRKRAKLAGKYLMGDLLGEGSYGKVKEVLDSETLCRRAVKILKKKKLRRIPNGEANVKKEIQLLRRLRHKNVIQLVDVLYNEEKQKMYMVMEYCVCGMQEMLDSVPEKRFPVCQAHGYFCQLIDGLEYLHSQGIVHKDIKPGNLLLTTGGTLKISDLGVAEALHPFAADDTCRTSQGSPAFQPPEIANGLDTFSGFKVDIWSAGVTLYNITTGLYPFEGDNIYKLFENIGKGSYAIPGDCGPPLSDLLKGMLEYEPAKRFSIRQIRQHSWFRKKHPPAEAPVPIPPSPDTKDRWRSMTVVPYLEDLHGADEDEDLFDIEDDIIYTQDFTVPGQVPEEEASHNGQRRGLPKAVCMNGTEAAQLSTKSRAEGRAPNPARKACSASSKIRRLSACKQQ [I46A] was run?
A: Its STK11 functional score is 1.5 ± 0.22.

Q: For MEVVDPQQLGMFTEGELMSVGMDTFIHRIDSTEVIYQPRRKRAKLIGKYLMGDLLGEGSYGKVKEVLDSETLCRRAVKILKKKKLRRIPNGEANTKKEIQLLRRLRHKNVIQLVDVLYNEEKQKMYMVMEYCVCGMQEMLDSVPEKRFPVCQAHGYFCQLIDGLEYLHSQGIVHKDIKPGNLLLTTGGTLKISDLGVAEALHPFAADDTCRTSQGSPAFQPPEIANGLDTFSGFKVDIWSAGVTLYNITTGLYPFEGDNIYKLFENIGKGSYAIPGDCGPPLSDLLKGMLEYEPAKRFSIRQIRQHSWFRKKHPPAEAPVPIPPSPDTKDRWRSMTVVPYLEDLHGADEDEDLFDIEDDIIYTQDFTVPGQVPEEEASHNGQRRGLPKAVCMNGTEAAQLSTKSRAEGRAPNPARKACSASSKIRRLSACKQQ [V95T], which STK11 functional score is on record?
A: The STK11 functional score was 1.62 ± 0.22.

Q: For MEVVDPQQLGMFTEGELMSVGMDTFIHRIDSTEVIYQPRRKRAKLIGKYLMGDLLGEGSYGKVKEVLDSETLCRRAVKILKKKKLRRIPNGEANVKKEIQLLRRLRHKNVIQLVDVLYNEEKQKMYMVMEYCVCGMQEMLDSVPEKRFPVCQAHGYFCQLIDGLEYLHSQGIVHKDIKPGNLLLTTGGTLKISDLGVAEALHPFAADDTCRTSQGSPAFQPPEIANGLDTFSGFKVDIWSAGVTLYNITTGLYPFEGDNIYKLFENIGKGSYAIPGDCGPPLSDLLKGMLEYEPAKRFSIRQIRQHSWFRKKHPPAEAPVPIPPSPDTKDRWRSMTVVPYLEDLHGADEDEDLFDLEDDIIYTQDFTVPGQVPEEEASHNGQRRGLPKAVCMNGTEAAQLSTKSRAEGRAPNPARKACSASSKIRRLSACKQQ [I356L], which STK11 functional score is on record?
A: Its STK11 functional score is 1.15 ± 0.38.

Q: Which STK11 functional score does the source give for MEVVDPQQLGMFTEGELMSVGMDTFIHRIDSTEVIYQPRRKRAKLIGKYLMGDLLGEGSYGKVKEVLDSETLCRRAVKILKKKKLRRIPNGEANVKKEIQLLRRLRHKNVIQLVDVLYNEEKQKMYMVMEYCVCGMQEMLDSVPEKRFPVCQAHGYFCQLIDGLEYLHSQGIVHKDIKPGNLLLTTGGTLKISDLGVAEALHPFAADDTCRTSQGSPAFQPPEIANGLDTFSGFKVDIWSAGVTLYNITTGLYPFEGDNIYKLFENIGKGSYAIPGDCGPPLSDLLKGMLEYEPAKRFSIRQIRQHSWFRKKHPPAEAPVPIPPSPDTKDRWRSMTVVPYLEDLHGADEDEDLFDIEDDIIYTQDFCVPGQVPEEEASHNGQRRGLPKAVCMNGTEAAQLSTKSRAEGRAPNPARKACSASSKIRRLSACKQQ [T367C] here?
A: The STK11 functional score was 1.4 ± 0.41.

Q: With MEVVDPQQLGMFTEGELMSVGMDTFIHRIDSTEVIYQPRRKRAKLIGKYLMGDLLGEGSYGKVKEVLDSETLCRRAVKILKKKKLRRIPNGEANVKKEIQLLRRLRHKNVIQLVDVLYNEEKQKMYMVMEYCVCGMQEMLDSVPEKRFPVCQAHGYFCQLIDGLEYLHSQGIVHKDIKPGNLLLTTGGTLKISDLGVAEALHPFAADDTCRTSQGSPAFQPPEIANGLDTFSGFKVDIWSAGVTLYNITTGLYPFEGDNIYKLFENIGKGSYAIPGDCGPPLSDLLKGMLEYEPAKRFSIRQIRQHSWFRKKHPPAEAPVPIPPSPCTKDRWRSMTVVPYLEDLHGADEDEDLFDIEDDIIYTQDFTVPGQVPEEEASHNGQRRGLPKAVCMNGTEAAQLSTKSRAEGRAPNPARKACSASSKIRRLSACKQQ [D327C] as the variant, how does the STK11 functional score read?
A: Its STK11 functional score is 1.27 ± 0.32.

Q: For MEVVDPQQLGMFTEGELMSVGMDTFIHRIDSTEVIYQPRRKRAKLIGKYLMGDLLGEGSYGKVKEVLDSETLCRRAVKILKKKKLRRIPNGEANVKKEIQLLRRLRHKNVIQLVDVLYNEEKQKMYMVMEYCVCGMQEMLDSVPEKRFPVCQAHGYFCQLIDGLEYLHSQGIVHKDIKPGNLLLTTGGTLKISDLGVAEALHPFAADDTCRTSQGSPAFQPPEIANGLDTFSGFKVDIWSAGVTLYNITTGLYPFEGDNIYKLFENIGKGSYAIPGDCGPPLSDLLKGMLEYEPAKRFSIRQIRQHSWFRKKHPPAEAPVPIPPSPDTKDRWRSMTVVPYLEDLHGADESEDLFDIEDDIIYTQDFTVPGQVPEEEASHNGQRRGLPKAVCMNGTEAAQLSTKSRAEGRAPNPARKACSASSKIRRLSACKQQ [D350S], which STK11 functional score is on record?
A: The STK11 functional score was 0.53 ± 0.49.

Q: How did the STK11 functional score turn out when MEVVDPQQLGMFTEGELMSVGMDTFIHRIDSTEVIYQPRRKRAKLIGKYLMGDLLGEGSYGKRKEVLDSETLCRRAVKILKKKKLRRIPNGEANVKKEIQLLRRLRHKNVIQLVDVLYNEEKQKMYMVMEYCVCGMQEMLDSVPEKRFPVCQAHGYFCQLIDGLEYLHSQGIVHKDIKPGNLLLTTGGTLKISDLGVAEALHPFAADDTCRTSQGSPAFQPPEIANGLDTFSGFKVDIWSAGVTLYNITTGLYPFEGDNIYKLFENIGKGSYAIPGDCGPPLSDLLKGMLEYEPAKRFSIRQIRQHSWFRKKHPPAEAPVPIPPSPDTKDRWRSMTVVPYLEDLHGADEDEDLFDIEDDIIYTQDFTVPGQVPEEEASHNGQRRGLPKAVCMNGTEAAQLSTKSRAEGRAPNPARKACSASSKIRRLSACKQQ [V63R] was run?
A: The STK11 functional score was -0.0566 ± 0.15.
